The values below come from US20260109758A1 (BIOSION, published 2026).

Test [1] deals with human IL4Rα on HEK293T-IL4R/STAT6/STAT6-Luc LB2 cells (human, UniProt P24394 26-825). Nature of the test: cell-based or functional assay.
The target of test [2] is T1, human IL4Rα expressed on 293F-IL4Rα cell surface (human, UniProt P24394 26-825).
T1 construct: whole, on cells; also called human IL4Rα-expressing cells; cell surface IL4R
As to the kind of experiment: flow cytometry on 293F-IL4Rα cells, PE anti-human IgG Fc. The procedure: (§1) Cells were washed twice with FACS buffer, and added with 100 μL/well R-Phycoerythrin AffiniPure Goat Anti-Human IgG, Fey fragment specific (1:1000 dilution in FACS buffer, Jackson Immunoresearch, Cat #109-115-098). Following an incubation of 40 minutes at 4° C. in dark, cells were washed three times and resuspended in FACS buffer. Fluorescence was measured using a Becton Dickinson FACS Canto II-HTS equipment. Data was analyzed using Graphpad Prism and EC₅₀ values were reported.
(In flow cytometry, cells or beads pass a laser one at a time.)

The target in test [3] is T1, human IL4Rα expressed on 293F-IL4Rα …. Nature of the test: cell-based blocking FACS on 293F-IL4Rα cells; blocked ligand biotin human IL4. The procedure:
(§2) Then, 1×10⁵ cells per well were incubated in 96 well-plates in 100 μL of serially diluted bispecific antibodies, the positive controls or negative control (starting at 100 nM with a 5-fold serial dilution) in FACS buffer for 40 minutes on ice. […] The plates were washed twice with FACS buffer, and then added and incubated for 40 minutes at 4° C. in dark with 100 μL/well R-Phycoerythrin Streptavidin (1:500 dilution in FACS buffer, Jackson Immunoresearch, Cat #016-110-084). Cells were washed twice and resuspended in FACS buffer. Fluorescence was measured using a Becton Dickinson FACS Canto II-HTS equipment. Data was analyzed using Graphpad Prism and IC₅₀ values were reported.

The target of test [4] is T2, recombinant human IL4Rα-his (human, UniProt P24394 26-231, limits assumed, biotin-labeled in the capture ELISA).
T2 construct: In-house made; not shown: His tag at the C-terminus
As to the kind of experiment: capture ELISA: antibody captured on anti-human IgG Fc F(ab')2, biotin human IL4Rα-his, SA-HRP. The procedure: (§3) Briefly, 96-well plates were coated with 2 μg/mL AffiniPure F(ab′)₂ Fragment Goat Anti-Human IgG, Fey fragment specific (Jackson Immuno Research, Cat #109-006-008) in PBS, 100 μL/well, overnight at 4° C. Plates were washed once with wash buffer (PBS+0.05% w/v Tween-20, PBST) and then blocked with 200 μL/well blocking buffer (5% w/v non-fatty milk in PBST) for 2 hours at 37° C. […] After a final wash, plates were incubated with 100 μL/well ELISA substrate TMB (Innoreagents, Cat #TMB-S-002). The reaction was stopped in 10 minutes at 25° C. with 50 μL/well 1M H₂SO₄, and the absorbance was read on a microplate reader using dual wavelength mode with 450 nm for TMB and 630 nm as the reference wavelength. Data was analyzed using Graphpad Prism and EC₅₀ values were reported.

The target in test [5] is T2, recombinant human IL4Rα-his. As to the kind of experiment: SPR Biacore T200; antibody captured on anti-human IgG CM5 chip, IL4Rα-his as analyte; 1:1 Langmuir fit. The protocol: The goat anti-human IgG (GE healthcare, Cat #BR100839, Human Antibody Capture Kit) was covalently linked to a CM5 chip (carboxy methyl dextran coated chip) via primary amines, using a standard amine coupling kit provided by Biacore (GE healthcare, Pittsburgh, PA, USA). Un-reacted moieties on the biosensor surface were blocked with ethanolamine. Then, purified bispecific antibodies of the disclosure at the concentration of 66.67 nM and the controls at 10 μg/mL, were flowed onto the chip at a flow rate of 10 μL/min. Then, serially diluted recombinant human IL4Rα-his (in house made, IL4Rα of SEQ ID NO: 33 with His tag at C-terminus) in HBS EP buffer (provided by Biacore) was flowed onto the chip at a flow rate of 30 μL/min. The association and dissociation curves were fit to a 1:1 Langmuir binding model using BIAcore evaluation software.
Background: SPR reads the build-up and loss of mass on a sensor chip optically.

Test [6] shares this target. As to the kind of experiment: competitive ELISA: coated human IL4Rα-his, antibody titrated; blocked ligand biotin human IL4. The protocol:
(§4) Briefly, 100 μL human IL4Rα-his proteins (prepared in-house, IL4Rα of SEQ ID NO: 33 with C-terminal His tag) were coated on 96-well micro plates at 2 μg/mL in PBS overnight at 4° C. The next day, plates were washed with wash buffer (PBS+0.05% w/v Tween-20, PBST), and blocked with 5% w/v non-fatty milk in PBST for 2 hours at 37° C. Plates were then washed again using wash buffer. Serially diluted bispecific antibodies or the controls (starting at 100 nM with a 5-fold serial dilution) in 2.5% w/v non-fatty milk in PBST, 100 μL per well, were added to the IL4Rα bound plates, and incubated at 37° C. for 40 minutes. […] Plates were washed again using wash buffer. Thereafter, the plates were added with 100 μL/well of streptavidin conjugated HRP (1:10000 dilution in PBST buffer, Jackson Immunoresearch, Cat #016-030-084) and incubated for 40 minutes at 37° C. Plates were washed again using wash buffer. Finally, TMB was added and the reaction was stopped using 1M H₂SO₄, and the absorbance was read at 450 nm. Data was analyzed using Graphpad Prism and IC₅₀ values were reported.

Test [7] shares this target. The description is as above. The protocol:
as §4
This is another data set of the same source.

The target in test [8] is T1, human IL4Rα expressed on 293F-IL4Rα …. Nature of the test: flow cytometry on 293F-IL4Rα cells, PE anti-human IgG Fc. The protocol: as §1
The source holds these as a separate data set.

The target is the same in test [9]. Nature of the test: cell-based blocking FACS on 293F-IL4Rα cells; blocked ligand biotin human IL4. The protocol:
as §2
This is another data set of the same source.

Test [10] deals with T2, recombinant human IL4Rα-his. Nature of the test: capture ELISA: antibody captured on anti-human IgG Fc F(ab')2, biotin human IL4Rα-his, SA-HRP. The protocol:
as §3
This is another data set of the same source. For orientation: ELISA stands for enzyme-linked immunosorbent assay.

Test [11] has as its target T3, recombinant human TSLP-his (human, UniProt Q969D9 29-159, biotin-labeled in the ELISAs).
T3 construct: In-house made; not shown: His tag at the C-terminus
Nature of the test: SPR Biacore; TSLP-his amine-coupled to CM5 chip, antibody as analyte; 1:1 Langmuir fit. The procedure: Un-reacted moieties on the biosensor surface were blocked with ethanolamine. Then, serially diluted purified bispecific antibodies and the controls (2-fold serial dilution in HBS-EP⁺ buffer starting at 100 nM) were respectively flowed onto the chip at a flow rate of 30 μL/min. The antigen-antibody association kinetics was followed for 4 minutes and the dissociation kinetics was followed for 13 minutes.

Test [12] addresses T3, recombinant human TSLP-his. As to the kind of experiment: capture ELISA: antibody captured on anti-human IgG Fc F(ab')2, biotin human TSLP-his, SA-HRP. The procedure: (§5) Briefly, 96-well micro plates were coated with 100 μL 2 μg/mL AffiniPure F(ab′)₂ Fragment Goat Anti-Human IgG, Fey fragment specific (Jackson Immuno Research, Cat #109-006-008) in PBS and incubated overnight at 4° C. Plates were washed 4 times with wash buffer (PBS+0.05% Tween-20, PBST) and then blocked with 200 μL/well blocking buffer (5% w/v non-fatty milk in PBST) for 2 hours at 37° C. […] After the final wash, the plates were incubated with 100 μL/well TMB (Innoreagents). The reaction was stopped 15 minutes later at room temperature with 50 μL/well 1M H₂SO₄, and the absorbance of each well was read on a microplate reader using dual wavelength mode with 450 nm for TMB and 630 nm as the reference wavelength. The OD (450-630) values were plotted against antibody concentration. Data was analyzed using Graphpad Prism and EC₅₀ values were reported.

In test [13] the target is T3, recombinant human TSLP-his. The description is as above. The protocol: as §5
This is another data set of the same source.

Read-outs that look alike come from different tables or passages of the source. Some results are limits rather than exact numbers.

B1: Dupilumab (antibody, V domains shown)
VH: EVQLVESGGGLEQPGGSLRLSCAGSGFTFRDYAMTWVRQAPGKGLEWVSSISGSGGNTYYADSVKGRFTISRDNSKNTLYLQMNSLRAEDTAVYYCAKDRLSITIRPRYYGLDVWGQGTTVTVSS
VL: DIVMTQSPLSLPVTPGEPASISCRSSQSLLYSIGYNYLDWYLQKSGQSPQLLIYLGSNRASGVPDRFSGSGSGTDFTLKISRVEAEDVGFYYCMQALQTPYTFGQGTKLEIKR
By EC50 is commonly meant the concentration that produces a half-maximal response. Broadly, the IC50 is the concentration that inhibits the measured activity by half. As usually defined, the Kd is a measure of binding affinity in units of concentration. The term koff denotes the first-order rate constant of dissociation. A word on the kon: it is the second-order rate constant of association. As to B1, in test [1], the “Inhibition on IL4 induced STAT6 phosphorylation (IC50, nM)” value is 0.00473 nM and the “Inhibition on IL13 induced STAT6 phosphorylation (IC50, nM)” value came out at 0.0262 nM. Further, a half-maximal response in test [2] (EC50) required 0.128 nM. This molecule yielded a half-maximal inhibitory concentration (IC50) in [3] of 0.102 nM. Further, the EC50 in [4] turned out to be 0.015 nM. For the same molecule, in [5], the Kd stood at 0.196 nM, the koff worked out at 5.58e-05 s⁻¹ and the kon turned out to be 285000 M⁻¹ s⁻¹. The IC50 in test [6] was 0.22 nM. Besides, in [7], the IC50 worked out at 0.254 nM.

B2: huC2C1A1A1-V15(IgG4) (antibody)
heavy: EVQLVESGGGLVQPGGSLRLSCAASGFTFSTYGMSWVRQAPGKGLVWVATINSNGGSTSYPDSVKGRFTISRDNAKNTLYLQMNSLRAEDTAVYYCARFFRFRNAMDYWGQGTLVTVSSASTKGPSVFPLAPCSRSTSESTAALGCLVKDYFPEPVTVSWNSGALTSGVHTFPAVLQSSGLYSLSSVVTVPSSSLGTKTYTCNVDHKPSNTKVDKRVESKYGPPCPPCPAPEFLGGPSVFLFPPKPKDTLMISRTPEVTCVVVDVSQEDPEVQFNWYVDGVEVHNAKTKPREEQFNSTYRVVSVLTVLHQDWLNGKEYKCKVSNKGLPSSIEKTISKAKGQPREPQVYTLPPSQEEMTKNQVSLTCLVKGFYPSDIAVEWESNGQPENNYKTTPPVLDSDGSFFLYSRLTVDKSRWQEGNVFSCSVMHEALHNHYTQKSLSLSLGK
light: DIQMTQSPSSLSASVGDRVTITCRTSENIYSYLAWYQQKPGKAPKFLVYNAKTLAEGVPSRFSGSGSGTDFTLTISSLQPEDFATYYCQHYYGPPTWTFGQGTKVEIKRTVAAPSVFIFPPSDEQLKSGTASVVCLLNNFYPREAKVQWKVDNALQSGNSQESVTEQDSKDSTYSLSSTLTLSKADYEKHKVYACEVTHQGLSSPVTKSFNRGEC
notes: also called anti-IL4R huC2C1A1A1-V15
For B2, the “Inhibition on IL4 induced STAT6 phosphorylation (IC50, nM)” value in test [1] worked out at 0.015 nM. Besides, the “Inhibition on IL13 induced STAT6 phosphorylation (IC50, nM)” value in [1] was determined as 0.033 nM. The EC50 was approximately 0.161 nM in test [8] and 0.0225 nM in [10]. The IC50 was found to be 0.107 nM in [9], 0.266 nM in [6] and 0.364 nM in [7].

B3: hu1C5F12E9-V8(IgG1) (antibody)
heavy: QVQLVQSGAEVKKPGASVKVSCKASGYTFTTYWMHWVRQAPGQGLEWMGVIDPSDSDTTYNQKFKGRVTMTRDTSTSTVYMELSSLRSEDTAVYYCTRSLDGYYDYWGQGTLVTVSSASTKGPSVFPLAPSSKSTSGGTAALGCLVKDYFPEPVTVSWNSGALTSGVHTFPAVLQSSGLYSLSSVVTVPSSSLGTQTYICNVNHKPSNTKVDKKVEPKSCDKTHTCPPCPAPEAQGGPSVFLFPPKPKDTLYITREPEVTCVVVDVSHEDPEVKFNWYVDGVEVHNAKTKPREEQYNSTYRVVSVLTVLHQDWLNGKEYKCQVSNKALPAPIEKTISKAKGQPREPQVYTLPPSRDELTKNQVSLTCLVKGFYPSDIAVEWESNGQPENNYKTTPPVLDSDGSFFLYSKLTVDKSRWQQGNVFSCSVMHEALHNHYTQKSLSLSPG
light: DIQMTQSPSSLSASVGDRVTITCRPTENIYSYLAWYQQKPGKAPKLLIYFARTLAEGVPSRFSGSGSGTDFTLTISSLQPEDFATYYCQHHYGTPWTFGGGTKVEIKRTVAAPSVFIFPPSDEQLKSGTASVVCLLNNFYPREAKVQWKVDNALQSGNSQESVTEQDSKDSTYSLSSTLTLSKADYEKHKVYACEVTHQGLSSPVTKSFNRGEC
notes: Monospecific control, full-length IgG1; also called anti-TSLP hu1C5F12E9-V8
Take B3: in test [11], the Kd is less than 0.0157 nM, the off-rate constant (koff) was less than 1e-05 s⁻¹ and the kon is 636000 M⁻¹ s⁻¹. In addition, the EC50 in test [12] was found to be 0.0487 nM. The EC50 in test [13] was 0.0511 nM.
